The experiment deals with E1s (hepatitis C virus). The experiment can be described thus: coating ELISA, E1s at 0.5 µg/ml, hybridoma supernatant. (In general: An ELISA detects its analyte on a solid surface through an enzyme-linked reagent.)

As for 4G2 (antibody), the O.D. (450-595 nm) is more than 2 O.D.

The values above are taken from patent publication US20090104207A1.
